Assay results published in patent publication US9212226B2, “Amino acid sequences directed against CXCR4 and other GPCRs and compounds comprising the same” (Ablynx N.V., priority 2008, dated 2015).
Entries after “also recorded” stand apart in the source; their conditions may differ.

Experiments:
histamine H4 receptors = histamine H4 receptors (Homo sapiens, UniProt Q9H3N8); assay: CRE/β-galactosidase reporter gene selectivity screen, histamine H4 receptor; format: cell-based; settings: up to 2.5, forskolin 3 μM, agonist at 50-80% Emax
CXCR3 = biological target: T1, CXCR3 (Homo sapiens, UniProt P49682); assay: CRE/β-galactosidase reporter gene selectivity screen, CXCR3; format: cell-based; settings: up to 2.5, forskolin 3 μM, agonist at 50-80% Emax
T1 sequence (P49682 1-368): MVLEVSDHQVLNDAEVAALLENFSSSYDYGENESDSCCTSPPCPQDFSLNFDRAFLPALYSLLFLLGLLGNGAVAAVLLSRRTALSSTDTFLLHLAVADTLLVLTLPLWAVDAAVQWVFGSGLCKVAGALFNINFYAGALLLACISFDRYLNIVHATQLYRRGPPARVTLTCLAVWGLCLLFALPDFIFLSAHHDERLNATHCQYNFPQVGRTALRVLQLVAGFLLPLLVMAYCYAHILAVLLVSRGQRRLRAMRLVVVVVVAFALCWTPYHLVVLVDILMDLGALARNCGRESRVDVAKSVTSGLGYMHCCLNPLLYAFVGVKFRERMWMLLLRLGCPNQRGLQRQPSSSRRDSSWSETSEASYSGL
Description: Data are shown as means±S.E.M. (n=2-3).
HEK293T cells were maintained at 37° C. in a humidified 5% CO2, 95% air atmosphere in Dulbecco's modified Eagle's medium (DMEM) containing 2 mM L-glutamine, 50 IU/ml penicillin, 50 μg/ml streptomycin, and 10% (v/v) fetal calf serum. Jurkat cells were cultured in a humidified 5% CO2, 95% air atmosphere in a 1:1 mixture of Dulbecco's modified Eagle's medium (DMEM) and Ham's F12 medium containing 2 mM L-glutamine, 50 IU/ml penicillin, 50 μg/ml streptomycin, and 10% (v/v) fetal calf serum. […] [^125 I]-Labelling— Radiolabeling of Nanobodies with ^125I was performed using the Iodo-gen method (Pierce, Rockford, Ill.) according to the manufacturer's protocol. ^125I-labeled Nanobodies was separated from free iodine (>99%) using a Sephadex G-25 gel filtration column (Amersham Biosciences, Piscataway, N.J.). […] Competition Binding Assays— Membranes from HEK293T cells transiently expressing CXCR3 or CXCR4 were prepared 48 h after transfection as follows. Cells were washed and scraped from the cell culture dishes with ice-cold PBS containing 1 mm EDTA. The scraped cells were pelleted at 1500×g for 10 min at 4° C. […] The total protein was determined using a Bradford assay (Bio-Rad). […] Plates were counted by liquid scintillation. […] The accumulated inositol phosphates were isolated by anion exchange chromatography and counted by liquid scintillation. […]

Sequence of histamine H4 receptors (Q9H3N8 whole entry): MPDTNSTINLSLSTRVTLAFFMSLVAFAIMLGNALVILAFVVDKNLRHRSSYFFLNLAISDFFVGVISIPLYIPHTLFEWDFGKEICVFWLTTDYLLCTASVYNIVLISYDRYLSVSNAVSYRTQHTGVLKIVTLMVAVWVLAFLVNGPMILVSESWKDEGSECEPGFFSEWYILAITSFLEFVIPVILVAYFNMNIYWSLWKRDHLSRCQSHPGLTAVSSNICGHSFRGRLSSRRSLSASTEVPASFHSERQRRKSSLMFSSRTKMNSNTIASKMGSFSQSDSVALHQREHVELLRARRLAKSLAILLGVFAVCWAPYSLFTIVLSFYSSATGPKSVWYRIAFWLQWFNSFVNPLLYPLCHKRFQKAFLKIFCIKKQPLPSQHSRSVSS

B1: 238D4: Nanobody (VHH) raised against human CXCR4, SEQ ID NO: 239 (protein)
VHH: EVQLMESGGGLVQAGGSLRLSCAASGRTFNNYAMGWFRRAPGKEREFVAAITRSGVRSGVSAIYGDSVKDRFTISRDNAKNTLYLQMNSLKPEDTAVYTCAASAIGSGALRRFEYDYSGQGTQVTVSS
modifications: Nanobody, Nanobody constructs or fragments thereof
- effect on agonist-induced response at histamine H4 receptors (histamine H4 receptors): do not act as agonists or antagonists; also recorded: do not alter
- effect on agonist-induced response at CXCR3 (CXCR3): do not act as agonists or antagonists; also recorded: do not alter

B2: 238D2: Nanobody (VHH) raised against human CXCR4, SEQ ID NO: 238 (protein)
VHH: EVQLVESGGGLVQTGGSLRLSCAASGFTFSSYAMSWVRQAPGKGLEWVSGIKSSGDSTRYAGSVKGRFTISRDNAKNMLYLQMYSLKPEDTAVYYCAKSRVSRTGLYTYDNRGQGTQVTVSS
modifications: Nanobody, Nanobody constructs or fragments thereof
- effect on agonist-induced response at histamine H4 receptors (histamine H4 receptors): do not act as agonists or antagonists; also recorded: do not alter
- effect on agonist-induced response at CXCR3 (CXCR3): do not act as agonists or antagonists; also recorded: do not alter
